Reference: US20050249734A1
Ends that are not written are not given here.

Assays:
[1] = molecular target: somatostatin receptors on GH4 pituitary cells; assay: cell-based or functional assay
[2] = molecular target: somatostatin receptors on GH4 pituitary cells; assay: displacement of 125I-somatostatin-14 from GH4 pituitary cells

Molecule	inhibition of TRH-stimulated cAMP in GH4 cells [1] [nM]	inhibition of VIP-stimulated cAMP in GH4 cells [1] [% at 10^-6 M]	Kd [2] [nM]
somatostatin-14 peptide (from UniProt P61278 103-116)	10	50	5
PCKNFFWKTFSSCK-NH2 (cysteine pairing not given here) [cortistatin-14 peptide]	10	50	5
